# Data: patent US20180371086A1 (Gilead, published 2018)
# Tests used:
# [1] = biological target: HIV-1 Env of virus MGRM-Chronic-B-012 (HIV-1); assay: cell-based or functional assay
# [2] = biological target: HIV-1 Env of virus MGRM-G-014 (HIV-1); assay: cell-based or functional assay
# [3] = biological target: HIV-1 Env of virus MGRM-Chronic-B-008 (HIV-1); assay: cell-based or functional assay
# [4] = biological target: HIV-1 Env of virus MGRM-A-002 (HIV-1); assay: cell-based or functional assay
# [5] = biological target: HIV-1 Env of virus MGRM-Chronic-B-009 (HIV-1); assay: cell-based or functional assay
# [6] = biological target: HIV-1 Env of virus MGRM-C-006 (HIV-1); assay: cell-based or functional assay
# [7] = biological target: HIV-1 Env of virus MGRM-C-004 (HIV-1); assay: cell-based or functional assay
# [8] = biological target: HIV-1 Env of virus MGRM-A-012 (HIV-1); assay: cell-based or functional assay
# [9] = biological target: HIV-1 Env of virus MGRM-Chronic-B-005 (HIV-1); assay: cell-based or functional assay
# [10] = biological target: HIV-1 Env of virus MGRM-Chronic-B-023 (HIV-1); assay: cell-based or functional assay
# [11] = biological target: HIV-1 Env of virus MGRM-D-002 (HIV-1); assay: cell-based or functional assay
# [12] = biological target: HIV-1 Env of virus MGRM-Chronic-B-003 (HIV-1); assay: cell-based or functional assay
# [13] = biological target: HIV-1 Env of virus MGRM-Chronic-B-022 (HIV-1); assay: cell-based or functional assay
# [14] = biological target: HIV-1 Env (gp120) of virus 8398 (HIV-1); assay: cell-based or functional assay
# [15] = biological target: HIV-1 Env (gp120) of virus 7467 (HIV-1); assay: cell-based or functional assay
# [16] = biological target: HIV-1 Env (gp120) of virus 7406 (HIV-1); assay: cell-based or functional assay
# [17] = biological target: HIV-1 Env (gp120) of virus CH106 (HIV-1); assay: cell-based or functional assay
# [18] = biological target: HIV-1 Env (gp120) of virus 712 (HIV-1); assay: cell-based or functional assay
# [19] = biological target: HIV-1 Env (gp120) of virus 7051 (HIV-1); assay: cell-based or functional assay
# [20] = biological target: HIV-1 Env (gp120) of virus 7552 (HIV-1); assay: cell-based or functional assay
# [21] = biological target: HIV-1 Env (gp120) of virus 1489 (HIV-1); assay: cell-based or functional assay
# [22] = biological target: HIV-1 Env (gp120) of virus 7015 (HIV-1); assay: cell-based or functional assay
# [23] = biological target: HIV-1 Env (gp120) of virus 727 (HIV-1); assay: cell-based or functional assay
# [24] = biological target: HIV-1 Env (gp120) of virus 593 (HIV-1); assay: cell-based or functional assay
# [25] = biological target: HIV-1 Env (gp120) of virus REJO (HIV-1); assay: cell-based or functional assay
# [26] = biological target: HIV-1 Env (gp120) of virus 7576 (HIV-1); assay: cell-based or functional assay
# [27] = biological target: HIV-1 Env (gp120) of virus WITO (HIV-1 (clone WITO)); assay: cell-based or functional assay
# [28] = biological target: HIV-1 Env (gp120) of virus 8089 (HIV-1); assay: cell-based or functional assay
# [29] = biological target: HIV-1 Env (gp120) of virus CH058 (HIV-1); assay: cell-based or functional assay
# [30] = biological target: HIV-1 Env (gp120) of virus 8106 (HIV-1); assay: cell-based or functional assay
# [31] = biological target: HIV-1 Env (gp120) of virus 657 (HIV-1); assay: cell-based or functional assay
# [32] = biological target: HIV-1 Env (gp120) of virus 8339 (HIV-1); assay: cell-based or functional assay
# [33] = biological target: HIV-1 Env (gp120) of virus 8320 (HIV-1); assay: cell-based or functional assay
# [34] = biological target: HIV-1 Env (gp120) of virus 8176 (HIV-1); assay: cell-based or functional assay
# [35] = biological target: HIV-1 Env (gp120) of virus BaL (HIV-1); assay: cell-based or functional assay
# Human FcRn = biological target: T1, Human FcRn (human, UniProt P55899 24-297; P61769 21-119); assay: ELISA, FcRn coated on plate; pH 7.0/6.0 ratio against that of PGT121
# T1 construct: also called neonatal Fc receptor
# T1 sequence (P55899 24-297 limits assumed, chain 1 of 2): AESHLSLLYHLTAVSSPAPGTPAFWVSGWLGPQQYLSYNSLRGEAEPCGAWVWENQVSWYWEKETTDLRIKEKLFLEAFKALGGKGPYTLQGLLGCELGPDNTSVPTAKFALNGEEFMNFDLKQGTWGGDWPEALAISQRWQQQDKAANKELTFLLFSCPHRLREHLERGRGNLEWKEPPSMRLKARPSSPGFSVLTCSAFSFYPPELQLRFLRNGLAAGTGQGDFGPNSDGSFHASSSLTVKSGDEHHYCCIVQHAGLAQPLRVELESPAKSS
# T1 sequence (P61769 21-119 limits assumed, chain 2 of 2): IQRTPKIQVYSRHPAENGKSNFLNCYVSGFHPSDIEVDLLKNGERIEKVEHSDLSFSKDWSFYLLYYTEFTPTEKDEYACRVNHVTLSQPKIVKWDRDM
# Description: The binding of antibodies to FcRn of various antibody variants at different pHs was determined. A 96-well Maxisorp plate was coated with 100 ul of 5 μg/ml FcRn. The plate was incubated overnight at 4° C., and then blocked with 4% skim milk for 2 hr at room temperature after washing 3 times with 0.05% Tween 20 washing buffer. […] The plate was then washed 3 times and 100 μL of Fab-anti-human Fab-HRP or Goat anti-human IgG-HRP secondary antibody diluted in 4% skimmed milk was added. Plates were then incubated 50 min at room temperature, washed three times, and 100 μL fresh TMB substrate was added. Plates were developed for 3 minutes on bench with gentle shaking. Plate was quenched with 100 μL 1M HCl, shaken briefly, read at A450 on a spectramax m5 plate reader.
binder,measurement,setting,value
PGT121.60 hIgG1/hLambda (antibody) heavy: QMQLQESGPGLVKPSETLSLTCSVSGASISDSYWSWIRRSPGKGLEWIGYVHKSGDTNYNPSLKSRVHLSLDTSKNQVSLSLTGVTAADSGKYYCARTLHGRRIYGIVAFNEWFTYFYMDVWGTGTQVTVSSASTKGPSVFPLAPSSKSTSGGTAALGCLVKDYFPEPVTVSWNSGALTSGVHTFPAVLQSSGLYSLSSVVTVPSSSLGTQTYICNVNHKPSNTKVDKKVEPKSCDKTHTCPPCPAPELLAGPDVFLFPPKPKDTLMISRTPEVTCVVVDVSHEDPEVKFNWYVDGVEVHNAKTKPREEQYNSTYRVVSVLTVLHQDWLNGKEYKCKVSNKALPLPEEKTISKAKGQPREPQVYTLPPSREEMTKNQVSLTCLVKGFYPSDIAVEWESNGQPENNYKTTPPVLDSDGSFFLYSKLTVDKSRWQQGNVFSCSVLHEALHSHYTQKSLSLSPGK light: not shown,PGT121.60 IC50,[1],0.0409 µg/mL
same,PGT121.60 IC50,[2],0.0034 µg/mL
same,PGT121.60 IC50,[3],0.0056 µg/mL
same,PGT121.60 IC50,[4],0.0047 µg/mL
same,PGT121.60 IC50,[5],0.0112 µg/mL
same,PGT121.60 IC50,[6],0.003 µg/mL
same,PGT121.60 IC50,[7],0.0064 µg/mL
same,PGT121.60 IC50,[8],0.0397 µg/mL
same,PGT121.60 IC50,[9],0.072 µg/mL
same,PGT121.60 IC50,[10],0.0034 µg/mL
same,PGT121.60 IC50,[11],0.0015 µg/mL
same,PGT121.60 IC50,[12],0.0079 µg/mL
same,PGT121.60 IC50,[13],11.5 µg/mL
same,"EC50 (µg/mL), killing of HIV-infected cells (Mean)",[14],0.067 µg/mL
same,"Emax, killing of HIV-infected cells (Mean)",[14],76%
same,"EC50 (µg/mL), killing of HIV-infected cells (Mean)",[15],0.139 µg/mL
same,"Emax, killing of HIV-infected cells (Mean)",[15],54%
same,"EC50 (µg/mL), killing of HIV-infected cells (Mean)",[16],0.09 µg/mL
same,"Emax, killing of HIV-infected cells (Mean)",[16],63%
same,"EC50 (µg/mL), killing of HIV-infected cells (Mean)",[17],6.17 µg/mL
same,"Emax, killing of HIV-infected cells (Mean)",[17],46%
same,"EC50 (µg/mL), killing of HIV-infected cells (Mean)",[18],0.084 µg/mL
same,"Emax, killing of HIV-infected cells (Mean)",[18],71%
same,"EC50 (µg/mL), killing of HIV-infected cells (Mean)",[19],0.394 µg/mL
same,"Emax, killing of HIV-infected cells (Mean)",[19],49%
same,"EC50 (µg/mL), killing of HIV-infected cells (Mean)",[20],0.011 µg/mL
same,"Emax, killing of HIV-infected cells (Mean)",[20],66%
same,"EC50 (µg/mL), killing of HIV-infected cells (Mean)",[21],0.276 µg/mL
same,"Emax, killing of HIV-infected cells (Mean)",[21],70%
same,"EC50 (µg/mL), killing of HIV-infected cells (Mean)",[22],0.516 µg/mL
same,"Emax, killing of HIV-infected cells (Mean)",[22],55%
same,"EC50 (µg/mL), killing of HIV-infected cells (Mean)",[23],0.034 µg/mL
same,"Emax, killing of HIV-infected cells (Mean)",[23],66%
same,"EC50 (µg/mL), killing of HIV-infected cells (Mean)",[24],0.912 µg/mL
same,"Emax, killing of HIV-infected cells (Mean)",[24],56%
same,"EC50 (µg/mL), killing of HIV-infected cells (Mean)",[25],2.6 µg/mL
same,"Emax, killing of HIV-infected cells (Mean)",[25],0%
same,"EC50 (µg/mL), killing of HIV-infected cells (Mean)",[26],0.016 µg/mL
same,"Emax, killing of HIV-infected cells (Mean)",[26],71%
same,"EC50 (µg/mL), killing of HIV-infected cells (Mean)",[27],2.52 µg/mL
same,"Emax, killing of HIV-infected cells (Mean)",[27],71%
same,"EC50 (µg/mL), killing of HIV-infected cells (Mean)",[28],0.226 µg/mL
same,"Emax, killing of HIV-infected cells (Mean)",[28],64%
same,"EC50 (µg/mL), killing of HIV-infected cells (Mean)",[29],0.16 µg/mL
same,"Emax, killing of HIV-infected cells (Mean)",[29],71%
same,"EC50 (µg/mL), killing of HIV-infected cells (Mean)",[30],0.11 µg/mL
same,"Emax, killing of HIV-infected cells (Mean)",[30],75%
same,"EC50 (µg/mL), killing of HIV-infected cells (Mean)",[31],1.44 µg/mL
same,"Emax, killing of HIV-infected cells (Mean)",[31],62%
same,"EC50 (µg/mL), killing of HIV-infected cells (Mean)",[32],3.81 µg/mL
same,"Emax, killing of HIV-infected cells (Mean)",[32],13%
same,"EC50 (µg/mL), killing of HIV-infected cells (Mean)",[33],2.12 µg/mL
same,"Emax, killing of HIV-infected cells (Mean)",[33],0%
same,"EC50 (µg/mL), killing of HIV-infected cells (Mean)",[34],1.01 µg/mL
same,"Emax, killing of HIV-infected cells (Mean)",[34],56%
same,"EC50 (µg/mL), killing of HIV-infected cells (Mean)",[35],0.048 µg/mL
same,"Emax, killing of HIV-infected cells (Mean)",[35],73%
same,Fold vs PGT121,Human FcRn,11 fold
